Test results from paper PMC5405427.

T1: IBV nsp9 wild-type (avian infectious bronchitis virus (IBV) …, UniProt P0C6Y3 3675-3785)
T1 sequence: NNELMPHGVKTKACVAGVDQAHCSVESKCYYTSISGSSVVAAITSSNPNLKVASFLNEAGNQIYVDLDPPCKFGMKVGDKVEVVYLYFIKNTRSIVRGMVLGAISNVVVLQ


How the values were obtained:
[1] = biological target: T1, IBV nsp9 wild-type; assay: zone-interference gel electrophoresis
[2] = biological target: T1, IBV nsp9 wild-type; assay: BLI

Row | Binder | binding result [1] | Kd [2]
1 | CGACTCATGGACCTTGGCAG (ssDNA) [20-mer ssDNA] | binds | –
2 | CGACUCAUGGACCUUGGCAG (ssRNA, phosphorothioate linkages at last two 3' residues (A19, G20)) [20-mer RNA, biotin (BLI)] | – | 28 µM
